Target: hfr1_arath HFR1 (UniProt Q9FE22)
Sequence (Q9FE22 whole entry): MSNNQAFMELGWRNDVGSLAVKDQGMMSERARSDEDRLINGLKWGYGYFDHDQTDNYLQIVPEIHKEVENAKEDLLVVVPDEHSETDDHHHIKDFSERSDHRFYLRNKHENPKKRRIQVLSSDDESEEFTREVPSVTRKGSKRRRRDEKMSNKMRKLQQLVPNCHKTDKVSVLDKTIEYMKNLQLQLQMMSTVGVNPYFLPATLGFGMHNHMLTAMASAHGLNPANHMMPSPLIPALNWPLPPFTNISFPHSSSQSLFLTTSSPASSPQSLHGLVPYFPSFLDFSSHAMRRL

Chain of Transcription factor LAF1 (Arabidopsis thaliana (Mouse-ear cress)), Q9M0K4 R97A (Q9M0K4 whole entry R97A): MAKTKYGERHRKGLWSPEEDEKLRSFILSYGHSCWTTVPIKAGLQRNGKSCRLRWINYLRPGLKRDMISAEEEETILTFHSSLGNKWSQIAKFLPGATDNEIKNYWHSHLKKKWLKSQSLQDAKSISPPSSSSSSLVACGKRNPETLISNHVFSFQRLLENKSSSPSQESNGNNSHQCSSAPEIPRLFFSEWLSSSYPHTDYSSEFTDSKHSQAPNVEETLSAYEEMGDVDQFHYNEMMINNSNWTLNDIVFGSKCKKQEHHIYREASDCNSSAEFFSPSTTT

Row | effect of a mutation on the interaction | Substance
1 | disrupting interaction | Transcription factor LAF1 (Arabidopsis thaliana (Mouse-ear cress)), Q9M0K4 R97A
2 | decreasing interaction | Transcription factor LAF1 (Arabidopsis thaliana (Mouse-ear cress)), Q9M0K4 W87A

— IntAct's records for PubMed 17699755
